Drawing on patent US20200179316A1, this text covers packaging efficiency with wild-type COPII, CHO-LDLRG544V cells and packaging efficiency with wild-type COPII, wild-type CHO cells for five substances.

This assay deals with Sec23a/Sec24d (full-length, wild type) (H. sapiens) (UniProt Q15436). Briefly: cell-based or functional assay. Particulars: scale: % of protein present in starting permeabilized cells.
Chain of Sec23a/Sec24d (full-length, wild type) (H. sapiens) (Q15436 whole entry, chain 1 of 2): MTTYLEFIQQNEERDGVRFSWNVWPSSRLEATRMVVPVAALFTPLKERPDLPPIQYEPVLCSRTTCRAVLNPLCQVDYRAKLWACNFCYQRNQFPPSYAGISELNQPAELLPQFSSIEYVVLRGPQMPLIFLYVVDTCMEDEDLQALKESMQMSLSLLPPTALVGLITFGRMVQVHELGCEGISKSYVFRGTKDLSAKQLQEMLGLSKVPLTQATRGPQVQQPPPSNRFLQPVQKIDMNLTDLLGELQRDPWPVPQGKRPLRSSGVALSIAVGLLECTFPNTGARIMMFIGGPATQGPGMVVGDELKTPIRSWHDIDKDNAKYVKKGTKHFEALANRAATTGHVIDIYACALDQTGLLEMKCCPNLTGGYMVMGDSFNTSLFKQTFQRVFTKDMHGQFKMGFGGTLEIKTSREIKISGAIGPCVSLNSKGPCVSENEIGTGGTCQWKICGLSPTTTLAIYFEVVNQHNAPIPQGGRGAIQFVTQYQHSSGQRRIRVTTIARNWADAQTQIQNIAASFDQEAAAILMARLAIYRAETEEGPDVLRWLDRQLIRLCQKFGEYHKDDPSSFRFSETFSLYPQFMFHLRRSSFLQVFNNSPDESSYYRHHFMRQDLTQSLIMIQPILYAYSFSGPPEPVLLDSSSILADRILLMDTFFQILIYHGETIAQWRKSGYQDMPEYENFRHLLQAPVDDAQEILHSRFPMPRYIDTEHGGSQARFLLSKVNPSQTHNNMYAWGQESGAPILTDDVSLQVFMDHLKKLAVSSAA
Chain of Sec23a/Sec24d (full-length, wild type) (H. sapiens) (O94855 other isoform, or with tags, fused parts or gaps, chain 2 of 2, further chain): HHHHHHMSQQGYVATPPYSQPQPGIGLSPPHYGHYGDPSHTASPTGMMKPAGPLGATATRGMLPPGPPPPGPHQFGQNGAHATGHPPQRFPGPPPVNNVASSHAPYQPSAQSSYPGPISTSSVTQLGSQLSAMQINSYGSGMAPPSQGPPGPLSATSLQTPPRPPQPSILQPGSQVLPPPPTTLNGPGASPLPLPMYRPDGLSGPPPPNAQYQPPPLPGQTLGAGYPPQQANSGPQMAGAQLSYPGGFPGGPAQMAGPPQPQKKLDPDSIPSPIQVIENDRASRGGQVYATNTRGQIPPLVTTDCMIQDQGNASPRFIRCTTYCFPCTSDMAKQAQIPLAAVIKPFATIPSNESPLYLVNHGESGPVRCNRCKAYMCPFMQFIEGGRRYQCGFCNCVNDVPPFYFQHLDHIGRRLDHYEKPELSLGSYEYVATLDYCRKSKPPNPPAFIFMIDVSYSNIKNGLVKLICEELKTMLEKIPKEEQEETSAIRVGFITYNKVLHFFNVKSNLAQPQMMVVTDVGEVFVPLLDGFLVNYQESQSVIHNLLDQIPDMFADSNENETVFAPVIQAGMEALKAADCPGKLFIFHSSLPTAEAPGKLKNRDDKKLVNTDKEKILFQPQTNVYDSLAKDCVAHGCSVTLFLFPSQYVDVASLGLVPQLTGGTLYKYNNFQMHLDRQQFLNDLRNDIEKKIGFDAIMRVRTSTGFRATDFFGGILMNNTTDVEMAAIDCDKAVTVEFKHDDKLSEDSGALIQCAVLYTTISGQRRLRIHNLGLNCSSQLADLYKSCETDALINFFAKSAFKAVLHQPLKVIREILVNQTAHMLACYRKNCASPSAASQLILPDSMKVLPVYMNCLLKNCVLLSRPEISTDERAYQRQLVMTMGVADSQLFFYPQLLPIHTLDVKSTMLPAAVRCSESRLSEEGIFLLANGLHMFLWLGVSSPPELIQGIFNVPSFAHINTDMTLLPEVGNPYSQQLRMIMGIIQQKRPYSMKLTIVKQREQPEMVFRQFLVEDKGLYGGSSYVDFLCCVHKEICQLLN

For ERGIC-53, the packaging efficiency with wild-type COPII, CHO-LDLRG544V cells stood at 4.5.
On to p24α2, for which the packaging efficiency with wild-type COPII, CHO-LDLRG544V cells is 8.7 and the packaging efficiency with wild-type COPII, wild-type CHO cells came to 10.9.
p24α3 came in with a packaging efficiency with wild-type COPII, CHO-LDLRG544V cells of 6.4 and a packaging efficiency with wild-type COPII, wild-type CHO cells of 6.4.
Substance p24β1 showed a packaging efficiency with wild-type COPII, CHO-LDLRG544V cells of 10.6.
Regarding p24δ1, the packaging efficiency with wild-type COPII, CHO-LDLRG544V cells amounted to 7.7 and the packaging efficiency with wild-type COPII, wild-type CHO cells was determined as 4.6.
